Laboratory results published in publication PMC3257281.

How the values were obtained:
[1] = molecular target: rabbit intestinal mucin (rabbit)
[2] = molecular target: rabbit intestinal mucin (rabbit); test: ELISA
[3] = molecular target: rabbit intestinal mucin (rabbit); test: binding to mucin-coupled Sepharose resin, Scatchard plot; rabbit mucin coupled to NHS-activated sepharose; different amounts of GbpA protein added to 400 µl resin, 2 h, room temperature; unbound protein measured after centrifugation; Kd from bound vs. bound/free
[4] = molecular target: rabbit intestinal mucin (rabbit); test: binding to mucin-coupled Sepharose resin, Scatchard plot

| Substance | inhibition of binding of biotinylated wild type V. cholerae N16961 to mucin-coated wells pre-treated with increasing concentrations of the protein; value at saturation [1] | Kd [2] | Kd [3] | Kd [4] |
| --- | --- | --- | --- | --- |
| GbpA(Y61A), full length GbpA with tyrosine 61 changed to alanine (from UniProt Q9KLD5 24-485) (natural protein) | 83% | 14.7 µM | 14.1 µM |  |
| GbpAD1, GbpA domain 1 (residues 24-203) (from UniProt Q9KLD5 24-203) (domain or fragment) |  | 8.7 µM |  |  |
| GbpAD3, GbpA domain 3 (domain or fragment) |  | 76.4 µM |  |  |
| GbpA_(D1–3), GbpA domains 1 to 3 (residues 24-414) (from UniProt Q9KLD5 24-414) (domain or fragment) |  | 13.2 µM | 12.5 µM |  |
| GbpAfl, mature full-length GlcNAc binding protein A (residues 24-485) (from UniProt Q9KLD5 24-485) (natural protein) | 83% | 7.8 µM |  | 9.4 µM |
